Measurements published in patent publication US20130280162A1.
One block for each binder: values may come before it.

Molecular target: human uPAR on 293/uPAR cells (human) (UniProt Q03405)
Assay: cell-based or functional assay

Sequence of human uPAR on 293/uPAR cells (human) (Q03405 23-305): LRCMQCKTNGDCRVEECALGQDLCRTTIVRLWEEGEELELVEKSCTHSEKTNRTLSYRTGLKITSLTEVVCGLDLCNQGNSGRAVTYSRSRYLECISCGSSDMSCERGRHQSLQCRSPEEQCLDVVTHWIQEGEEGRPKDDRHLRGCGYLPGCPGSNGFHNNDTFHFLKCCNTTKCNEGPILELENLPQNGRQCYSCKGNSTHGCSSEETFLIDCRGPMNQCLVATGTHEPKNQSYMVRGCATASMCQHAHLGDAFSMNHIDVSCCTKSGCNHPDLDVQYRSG

IC50, inhibition of 293/uPAR cell adhesion to VN (RTCA impedance, 1 h after addition): 6.3 nM
maximal inhibition of 293/uPAR cell adhesion to VN: 60%
B1: SMB-GFD/mFc (disulphide-linked homodimer) (Fc fusion)
chain: DQESCKGRCTEGFNVDKKCQCDELCSYYQSCCTDYTAECKPGGGGSGGGGSGGGGPSNCDCLNGGTCVSNKYFSNIHWCNCPKKFGGQHCEIDKSKGSGLEAGAGPRDCGCKPCICTVPEVSSVFIFPPKPKDVLTITLTPKVTCVVVDISKDDPEVQFSWFVDDVEVHTAQTKPREEQFNSTFRSVSELPIMHQDWLNGKEFKCRVNSAAFPAPIEKTISKTKGRPKAPQVYTIPPPKEQMAKDKVSLTCMITDFFPEDITVEWQWNGQPAENYKNTQPIMDTDGSYFVYSKLNVQKSNWEAGNTFTCSVLHEGLHNHHTEKSLSHSPGK

IC50, inhibition of 293/uPAR cell adhesion to VN (RTCA impedance, 1 h after addition): 20 nM
maximal inhibition of 293/uPAR cell adhesion to VN: 60%
B2: GFD-SMB/mFc (disulphide-linked homodimer) (Fc fusion)
chain: SNELHQVPSNCDCLNGGTCVSNKYFSNIHWCNCPKKFGGQHCEIDKSKTGGGGSGGGGSGGGGQESCKGRCTEGFNVDKKCQCDELCSYYQSCCTDYTAECKPGSGLEAGAGPRDCGCKPCICTVPEVSSVFIFPPKPKDVLTITLTPKVTCVVVDISKDDPEVQFSWFVDDVEVHTAQTKPREEQFNSTFRSVSELPIMHQDWLNGKEFKCRVNSAAFPAPIEKTISKTKGRPKAPQVYTIPPPKEQMAKDKVSLTCMITDFFPEDITVEWQWNGQPAENYKNTQPIMDTDGSYFVYSKLNVQKSNWEAGNTFTCSVLHEGLHNHHTEKSLSHSPGK
